This is an account of results in US20250339501A1, “COMPOSITIONS AND METHODS FOR TREATING METABOLIC DISEASE” (The Regents of the University of California, priority 2021, published 2025).

Entries after “also recorded” stand apart in the source; their conditions may differ.

The assay concerns JNK. Description: TNFα-induced JNK phosphorylation in HepG2 cells. The conditions noted are these: human HepG2 liver cells. Type of assay: cell-based. An excerpt:
As described above, Dj1 administration stimulates AMPK phosphorylation in the liver cells. However, elevated AMPK phosphorylation in vivo was not observed (data not shown). Numerous studies have reported that the c-Jun N terminal kinase (JNK) is critical to the development of steatosis and chronic liver injury in NAFLD (22-25). […] However, not all MAPK pathways were activated. For example, phosphorylation of p42 was not altered by tDj1 treatment (FIG. 6O). Both rDj1 and tDj1 suppressed TNFα and Anisomycin-induced JNK (p54 and p46) phosphorylation in human HepG2 and mouse AML12 liver cells, respectively (FIGS. 6C-6D).

B1: rDj1: full-length recombinant Dj1 protein; mouse protein (Novus, NBP2-59523) injected in mice, human protein used in HepG2 cells (protein, UniProt Q99LX0 1-189, looked up)
chain: MASKRALVILAKGAEEMETVIPVDVMRRAGIKVTVAGLAGKDPVQCSRDVMICPDTSLEDAKTQGPYDVVVLPGGNLGAQNLSESPMVKEILKEQESRKGLIAAICAGPTALLAHEVGFGCKVTTHPLAKDKMMNGSHYSYSESRVEKDGLILTSRGPGTSFEFALAIVEALVGKDMANQVKAPLVLKD
modifications: full-length
notes: full-length recombinant Dj1 protein; mouse protein (Novus, NBP2-59523) injected in mice, human protein used in HepG2 cells
In the case of B1, the “TNFα-induced JNK (p54 and p46) phosphorylation” value is reported as “suppressed; also recorded: inhibits”.
